Results published in US20080242633A1.

Target: Apaf-1 (UniProt O14727)
Assay: cell-based or functional assay

Chain of UniProt O14727 (O14727 whole entry): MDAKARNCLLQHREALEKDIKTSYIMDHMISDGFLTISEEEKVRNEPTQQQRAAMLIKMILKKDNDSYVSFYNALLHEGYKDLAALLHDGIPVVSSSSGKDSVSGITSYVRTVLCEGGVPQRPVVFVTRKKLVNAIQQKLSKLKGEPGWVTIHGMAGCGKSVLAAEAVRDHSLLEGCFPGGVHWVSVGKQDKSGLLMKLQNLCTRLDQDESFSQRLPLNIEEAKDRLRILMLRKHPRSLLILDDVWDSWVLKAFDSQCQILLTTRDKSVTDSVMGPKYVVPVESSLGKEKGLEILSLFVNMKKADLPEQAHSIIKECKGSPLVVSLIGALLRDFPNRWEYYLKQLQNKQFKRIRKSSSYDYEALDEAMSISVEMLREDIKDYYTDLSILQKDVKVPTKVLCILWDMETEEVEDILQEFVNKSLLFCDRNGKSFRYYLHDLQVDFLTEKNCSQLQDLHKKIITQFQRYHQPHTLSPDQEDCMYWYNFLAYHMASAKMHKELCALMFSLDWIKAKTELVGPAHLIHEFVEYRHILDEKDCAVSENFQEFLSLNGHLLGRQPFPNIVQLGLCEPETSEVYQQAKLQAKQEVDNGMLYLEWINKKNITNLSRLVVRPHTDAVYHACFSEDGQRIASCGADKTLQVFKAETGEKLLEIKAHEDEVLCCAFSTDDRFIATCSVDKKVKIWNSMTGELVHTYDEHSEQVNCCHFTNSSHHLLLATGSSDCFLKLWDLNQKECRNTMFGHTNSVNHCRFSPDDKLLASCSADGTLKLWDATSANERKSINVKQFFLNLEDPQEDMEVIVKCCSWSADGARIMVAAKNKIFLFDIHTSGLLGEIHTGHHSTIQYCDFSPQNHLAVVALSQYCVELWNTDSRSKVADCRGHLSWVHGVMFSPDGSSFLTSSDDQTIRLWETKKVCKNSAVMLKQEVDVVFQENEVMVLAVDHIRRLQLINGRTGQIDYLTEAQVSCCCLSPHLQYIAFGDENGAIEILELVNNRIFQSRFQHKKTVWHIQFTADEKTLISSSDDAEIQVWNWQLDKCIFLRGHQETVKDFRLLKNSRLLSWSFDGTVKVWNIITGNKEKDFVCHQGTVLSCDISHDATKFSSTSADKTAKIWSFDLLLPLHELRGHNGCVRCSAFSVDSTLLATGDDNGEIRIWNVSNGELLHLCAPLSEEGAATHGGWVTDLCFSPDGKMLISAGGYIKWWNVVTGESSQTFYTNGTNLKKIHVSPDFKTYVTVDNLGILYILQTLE

caspase-3 activation activity (AMC production rate from Ac-DEVD-AMC, cell-free assay with U-937 cytosol) (fold greater than wild type): 1.4
Substance: CYCS(Gly42-Ser) (from UniProt P99999 2-105)
